The values below come from patent publication US20220195055A1 (SHANDONG BOAN BIOTECHNOLOGY, published 2022).

Experiment [1] has as its target T1, CD25 protein (Sino Biological, 10165-H08H) (UniProt P01589 22-213).
T1 construct: Bought recombinant protein; It speaks elsewhere of human CD25; also called antigen CD25; IL-2Rα
T1 sequence (looked up): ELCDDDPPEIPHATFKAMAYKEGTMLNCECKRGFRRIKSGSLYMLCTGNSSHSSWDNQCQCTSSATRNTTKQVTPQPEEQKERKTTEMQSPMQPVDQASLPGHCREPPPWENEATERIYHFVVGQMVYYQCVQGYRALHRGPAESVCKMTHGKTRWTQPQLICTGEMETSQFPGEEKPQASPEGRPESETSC
The experiment in a line: SPR (BIAcore 8K); antibody captured by anti-human IgG Fc, CD25 protein as analyte, 1:1 model. As for the experimental part: Antibody binding kinetics uses BIAcore8K instrument based on surface plasmon resonance (SRP) technology to measure. Anti-human IgG antibody amino was coupled to a CMS biosensor chip by the GE anti Human IgG Fc amino coupling kit (GE, cat # BR-1008-39) to obtain approximately 1000 response units (RU). For kinetic measurements, the CD25 protein (Sino Biological, 10165-H08H) was diluted 2-fold continuously with HBS-EP+1×(GE, BR-1008-26) buffer, starting at 50 nM, being diluted 2-fold for 4 concentration gradients and setting 0 concentration. The antibody to be detected: 2 μg/ml, sample injection time 70 s, flow rate 5 μL/min, stable for 5 s; CD25 protein: binding for 60 s, flow rate 30 μL/min, dissociation for 450 s; regeneration: regeneration was performed for 30 s with 3M MgCl₂ buffer, Startup 3 times. The association constant (ka) and dissociation constant (kd) were calculated using a simple one-to-one Languir binding model (BIAcore Evaluation Software version 3.2), and the equilibrium dissociation constant (KD) was calculated by the ratio kd/ka.
Background: In SPR one partner is held on a chip, and binding of the other changes the refractive index at the surface.

Experiment [2] has as its target T1, CD25 protein (Sino Biological, …). In words: ELISA; CD25 protein coated in a dilution series, antibody at one fixed concentration, anti-human IgG/HRP. The text has this: (§1) The results are shown in FIG. 2A to FIG. 2E and Table 2 to Table 6.
For orientation: ELISA stands for enzyme-linked immunosorbent assay.

Experiment [3] addresses T2, CD25 on cells (SU-DHL-1 target cells; PBMC) (UniProt P01589 22-272, limits assumed).
T2 sequence (looked up): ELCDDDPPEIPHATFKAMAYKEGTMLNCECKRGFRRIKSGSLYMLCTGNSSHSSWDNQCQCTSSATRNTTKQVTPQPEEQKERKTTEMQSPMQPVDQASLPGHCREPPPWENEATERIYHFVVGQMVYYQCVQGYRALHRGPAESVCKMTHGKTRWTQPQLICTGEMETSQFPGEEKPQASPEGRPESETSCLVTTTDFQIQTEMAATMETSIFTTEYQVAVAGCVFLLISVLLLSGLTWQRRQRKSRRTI
In words: cell-based or functional assay.

Experiment [4] concerns the target T1, CD25 protein (Sino Biological, …). In words: ELISA; CD25 protein coated in a dilution series, antibody at one fixed concentration, anti-human IgG/HRP.
Text: as §1
This is another data set of the same source.

Experiment [5] deals with T2, CD25 on cells (SU-DHL-1 target cells; …). The experiment in a line: cell-based or functional assay. The source holds these as a separate data set.
Experiment [6] concerns the target T1, CD25 protein (Sino Biological, …). In words: ELISA; CD25 protein coated in a dilution series, antibody at one fixed concentration, anti-human IgG/HRP.
Text: as §1
The source holds these as a separate data set.

Experiment [7] has the same target. Described as above.
Text: as §1
This is another data set of the same source.

Experiment [8] has the same target. The experiment is described as above.
Text: as §1
The source holds these as a separate data set.

Experiment [9] deals with T2, CD25 on cells (SU-DHL-1 target cells; …). In words: cell-based or functional assay. The source holds these as a separate data set.

Read-outs that look alike come from different tables or passages of the source.

B1: CD25Q11-CT848-IgG1 (antibody, V domains shown)
VH: QVQLQQWGAGLLKPSETLSLTCAVYGGSFSGSYWSWIRQSPRKGLEWIGEIDHSGSTIANPSLKSRITISLDTSKNQFFLQLRSMTAADTAVYYCARGEAFDIWGQGTMVTVSS
VL: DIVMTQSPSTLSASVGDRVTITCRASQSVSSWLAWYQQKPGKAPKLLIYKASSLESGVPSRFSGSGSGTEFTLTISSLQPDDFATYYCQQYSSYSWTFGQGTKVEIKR
notes: IgG1 expressed in HEK293
A word on the Kd: it is a measure of binding affinity in units of concentration. Low values mean tighter binding, high ones weaker binding. Broadly, the koff is a measure of how fast the partners let go of each other. Higher therefore signals fast dissociation. As usually defined, the kon is a measure of how fast the partners come together. A low value points to slower complex formation. Usually EC50 stands for the concentration that produces a half-maximal response. A low value points to an effect from little substance. Turning to B1, in experiment [1], the Kd came to 3.09 nM, the dissociation rate constant (koff) is 0.00218 s⁻¹ and the kon amounted to 705000 M⁻¹ s⁻¹. The same molecule yielded an EC50 in experiment [2] of 0.00916 µg/mL. For the same molecule, in experiment [3], the “% PSTAT5 in CD3 positive T cells of PBMC after IL2, with 10 µg/mL antibody” value (shortened to “% PSTAT5 in CD3 positive T cells of PBMC”) was found to be 15.8%.

B2: CD25Q14-CA721-IgG1 (antibody, V domains shown)
VH: QVQLVQSGAEVKKPGESLKISCKGSGYSFANYWIVWVRQMPGKGLEWMGIIYPDDSETRYSPSFQGQVTFSADKSISTAYLQWSSLKASDTAMYYCTRGPYYSDYWGQGTLVTVSS
VL: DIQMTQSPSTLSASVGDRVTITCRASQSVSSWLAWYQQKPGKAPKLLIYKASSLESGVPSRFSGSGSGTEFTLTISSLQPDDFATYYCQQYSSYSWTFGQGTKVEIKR
notes: IgG1 expressed in HEK293
In [1], B2 had a Kd of 0.536 nM, a koff of 0.000365 s⁻¹ and a kon of 680000 M⁻¹ s⁻¹. In addition, in [4], the EC50 worked out at 0.00325 µg/mL. Further, the “EC50 of simulated killing activity (Jurkat effector reporter cells, SU-DHL-1 target cells, luminescence)” value (from here on “EC50 of simulated killing activity”) in experiment [5] is 0.288 µg/mL.

B3: CD25Q14-CA707-IgG1 (antibody, V domains shown)
VH: EVQLVQSGAEVKKPGESLKISCKGSGYSFSNYWIGWVRQMPGKGLEWMGIISPGDSTTKYSPSFQGQVTFSADKSTSTAYLQWSSLQASDTAMYYCVRGPYYLDYWGQGTLVTVSS
VL: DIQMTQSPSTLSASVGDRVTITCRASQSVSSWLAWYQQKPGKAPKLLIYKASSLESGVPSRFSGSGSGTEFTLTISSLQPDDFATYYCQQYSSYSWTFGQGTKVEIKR
notes: IgG1 expressed in HEK293
In experiment [1], B3 displayed a Kd of 2.85 nM, a koff of 0.000944 s⁻¹ and a kon of 331000 M⁻¹ s⁻¹. In [4], it took 0.00641 µg/mL to reach a half-maximal effect (EC50). Further, in [5], the “EC50 of simulated killing activity” value is 0.248 µg/mL.

B4: CD25Q8-BT942-IgG1 (antibody, V domains shown)
VH: QVQLVQSGAEVKKPGSSVKVSCKASGGTFSSDAINWVRQAPGQGLEWMGRIIPIFGVADYAQKFQGRVTLTADKSTSTAYMDLSSLRSEDTAVFYCARERGDYSNFWYFDLWGRGTLVTVSS
VL: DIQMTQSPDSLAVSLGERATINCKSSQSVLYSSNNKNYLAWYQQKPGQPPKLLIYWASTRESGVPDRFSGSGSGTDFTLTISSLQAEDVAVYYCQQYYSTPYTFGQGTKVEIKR
notes: IgG1 expressed in HEK293
In experiment [1], B4 came in with a Kd of 3.79 nM, a koff of 0.000339 s⁻¹ and a kon of 89600 M⁻¹ s⁻¹. In experiment [2], this molecule yielded a 50% effective concentration (EC50) of 0.00226 µg/mL. The “% PSTAT5 in CD3 positive T cells of PBMC” value in experiment [3] was 16.5%.

B5: CD25-MA251-IgG1 (antibody, V domains shown)
VH: QVQLKESGPGLVAPSQSLSITCTVSGFSLTSYGIQWVRQPPGKGLEWLGVIWAGGSTNYNSALMSRLSISKDNSKSQVFLKMNSLQTDDTAMYYCARAYGYDGSWLAYWGQGTLVTVSS
VL: QIVLSQSPAILSASPGEKVTMTCRASSSVSYMHWYQQKPGSSPKPWIFATSNLASGVPARFSGSGSGTSYSLTINRVEAEDADTYYCQQWSSNPPTFGGGTKLEIKR
notes: also called CD25Q-MA251; control antibody
In the case of B5, the EC50 in experiment [6] was 0.017 µg/mL; in [4], 0.0121 µg/mL; in experiment [2], 0.0245 µg/mL; in experiment [7], 0.0141 µg/mL; in [8] it was 0.0106 µg/mL. For the same molecule, binding in [1] was put at a Kd of 5.19 nM. This molecule also yielded a koff in experiment [1] of 0.000912 s⁻¹. This molecule also had a kon in experiment [1] of 176000 M⁻¹ s⁻¹. Further, the “EC50 of simulated killing activity” value was 0.255 µg/mL in [5] and 0.361 µg/mL in experiment [9]. Moreover, the “% PSTAT5 in CD3 positive T cells of PBMC” value in experiment [3] was determined as 18.5%.
